Source: patent US20240076371A1, “COMPOSITIONS AND METHODS FOR TREATING OSTEOARTHRITIS, RHEUMATOID ARTHRITIS, AND JOINT AND TENDON DISORDERS” (BOARD OF REGENTS, THE UNIVERSITY OF TEXAS SYSTEM, priority 2021, published 2024)

Columns and labels:
[1] = tested on: post-traumatic OA model (DMM) in male C57BL/6 mice; assay: DMM OA model: immunohistochemistry of Col X and MMP13 in articular cartilage; format: in vivo, mouse
Procedure: Destabilization of the medial meniscus (DMM) surgery was performed on the right knee joint of mice (Glasson S S, et al. Osteoarthritis and cartilage. 2007; 15(9):1061-9). Briefly, a 3 mm longitudinal incision over the distal patella to proximal tibial plateau was made. The joint capsule immediately medial to the patellar tendon was incised with a #15 blade and the joint capsule opened with micro-iris scissors. Blunt dissection of the fat pad over the intercondylar area was then performed to expose the intercondylar region, providing visualization of the meniscotibial ligament of the medial meniscus. Mild hemorrhage from the fat pad upon blunt dissection was controlled by pressure from absorption spears. Sectioning of medial meniscotibial ligament with micro-surgical knife, with the blade directed proximo-laterally, gave destabilization of the medial meniscus (DMM). Sham surgery was performed with the ligament visualized but not transected. Immunohistochemistry. The ABC (avidin-biotin-peroxidase complex) Immunostaining Assay Kit (Vector Laboratories, PK-6101) was used. Briefly, bone tissue sections were antigen unmasked using sodium citrate buffer (pH 6.0) at 65° C. for 2 h for MMP13 staining and trypsin digestion buffer (pH 7.8) at 37° C. for 30 min for collagen X staining. Bone tissue sections were then treated with goat normal serum for 20 min at room temperature to block nonspecific background staining. Tissue sections were stained with anti-MMP13 polyclonal antibody (1:200 dilution, Abcam, ab39012), or labeled with anti-collagen X monoclonal antibody (1:100 dilution, Thermo Fisher, 14-9771-82) at 4° C. overnight. Then, the sections were incubated for 30 min with biotin-labeled secondary antibody and VECTASTAIN ABC Reagent for 30 min Samples were washed in PBS buffer and developed in DAB (SK4100) chromogen solution (Vector Laboratories, Burlingame, CA, USA). Tissues were then counterstained with VECTOR Hematoxylin (H-3401) for 5 min at room temperature. Slides were then dehydrated, cleared, and mounted. Sections were photographed using the Keyence microscope (BZ-X710, Keyence, Osaka, Japan). The percentage of MMP13 or Col X-positive chondrocytes were quantified using NIH Image J software.

[2] = tested on: post-traumatic OA model (DMM) in male C57BL/6 mice; assay: DMM OA model: Von Frey filament test (paw withdrawal threshold); format: in vivo, mouse
Procedure: (§1) Destabilization of the medial meniscus (DMM) surgery was performed on the right knee joint of mice (Glasson S S, et al. Osteoarthritis and cartilage. 2007; 15(9):1061-9). Briefly, a 3 mm longitudinal incision over the distal patella to proximal tibial plateau was made. The joint capsule immediately medial to the patellar tendon was incised with a #15 blade and the joint capsule opened with micro-iris scissors. Blunt dissection of the fat pad over the intercondylar area was then performed to expose the intercondylar region, providing visualization of the meniscotibial ligament of the medial meniscus. Mild hemorrhage from the fat pad upon blunt dissection was controlled by pressure from absorption spears. Sectioning of medial meniscotibial ligament with micro-surgical knife, with the blade directed proximo-laterally, gave destabilization of the medial meniscus (DMM). Sham surgery was performed with the ligament visualized but not transected.
Animal behavioral tests. The paw withdraw threshold was measured using von Frey filaments 0.007 to 2. Mice were placed in acrylic chambers (5.5×10 cm) suspended above a wire mesh grid and allowed to acclimatize to the testing apparatus for 30 minutes prior to experiments. When the mouse was not moving the von Frey filaments were pressed against the plantar surface of the paw until the filament buckled and held for a maximum of 3 seconds. A positive response was noted if the paw was sharply withdrawn on application of the filament. Flinching immediately upon removal of the filament was also considered a positive response (Chaplan S R, et al. Journal of neuroscience methods. 1994; 53(1):55-63; and Bonin R P, et al. Molecular pain. 2014; 10:26). Testing began with filament number 0.4 and progressed according to an up-down method.

[3] = tested on: post-traumatic OA model (DMM) in male C57BL/6 mice; assay: DMM OA model: synovitis score; format: in vivo, mouse; conditions: vs saline
Procedure: as §1
The degree of synovitis is determined considering synovial membrane thickening and synovial hyperplasia and scored on a scale of 0-3 (0, no synovitis; 1, mild synovitis; 2, moderate synovitis; and 3, severe synovitis) (Krenn V, et al. Pathology, research and practice. 2002; 198(5):317-25; and Huesa C, et al. Annals of the rheumatic diseases. 2016; 75(11):1989-97. Blinded histomorphometric assessment was performed.

[4] = molecular target: T1, Cx43 hemichannel (Mus musculus, UniProt P23242); assay: In vivo Evans Blue dye uptake assay in synovium after DMM; conditions: 25 mg/kg at 30 mins after DMM surgery, Evans Blue 200 mg/kg at two weeks after the treatment; DMM increased opening by 2 folds
T1 construct: from tissue; host or cells: synovium of male C57BL/6 mice after DMM surgery (in vivo)
Procedure: In vivo dye uptake assay. Evans Blue dye (Mw: 900 Da) (200 mg/kg) and FITC-dextran (Mw: 10,000 Da) (200 mg/kg) were co-injected […] post-antibody treatment via the tail vein. One-hour post administration of the dye, mice were anesthetized, and cardiac perfusion was performed with cold PBS and 4% paraformaldehyde. Both hindlimbs were isolated and prepared for frozen sections. Sections were stained with DAPI and photographed using the Keyence microscope (BZ-X710, Keyence, Osaka, Japan). The intensity of dye uptake was quantified by NIH Image J software.
To determine the Cx43 hemichannel activity in vivo, Evans Blue dye uptake assay was performed. Mice were treated with saline or Cx43 antibody (M1 antibody) (25 mg/kg) at 30 mins after DMM surgery. Tail vein injection of Evans Blue dye (200 mg/kg) was performed at two weeks after the treatment, and Evans Blue dye uptake intensity was quantified in synovium region. […] Frozen sections prepared from saline-treated mice were immuno-labeled with the M1 antibody, further validated the role of the M1 antibody in blocking the osteoarthritis induced hemichannel opening in synoviocytes that express Cx43 (FIG. 11C).

[5] = molecular target: T2, Cx43 hemichannels (HCs) in primary mouse chondrocytes (Mus musculus, UniProt P23242); assay: Ethidium bromide dye uptake assay in primary mouse chondrocytes; format: cell-based
T2 construct: In primary mouse chondrocytes, ethidium bromide dye uptake assay; endogenous in cells; host or cells: primary mouse chondrocytes
T2 sequence (P23242 whole entry): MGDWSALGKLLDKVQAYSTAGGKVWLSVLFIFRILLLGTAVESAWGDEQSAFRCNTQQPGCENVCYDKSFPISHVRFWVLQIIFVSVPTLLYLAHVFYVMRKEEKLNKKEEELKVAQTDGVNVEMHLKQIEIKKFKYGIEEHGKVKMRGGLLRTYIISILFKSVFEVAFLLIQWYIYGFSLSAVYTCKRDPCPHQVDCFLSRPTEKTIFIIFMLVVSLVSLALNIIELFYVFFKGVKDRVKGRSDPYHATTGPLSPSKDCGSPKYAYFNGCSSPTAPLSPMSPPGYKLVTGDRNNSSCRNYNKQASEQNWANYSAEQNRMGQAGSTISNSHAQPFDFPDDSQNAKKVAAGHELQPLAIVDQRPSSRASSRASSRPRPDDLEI

T1 sequence (P23242 whole entry): as above

B1: M1 antibody: antibody with variable heavy chain SEQ ID NO: 58 and variable light chain SEQ ID NO: 60; inhibits or blocks opening of Cx43 hemichannel (antibody, V domains shown)
VH: EVQLQQPGAELVKPGASVKLSCKASGYTFTSYYMYWVKQRPGQGLEWIGGINPSNGGTNFNEKFKNKATLTVDKSSSTAYMQLSSLTSEDSAVYYCTREGNPYYTMNYWGQGTSVTVSS
VL: DIVMTQSPSSLSVSAGEKVTMSCKSSQSLLNSGNQKTYLAWYQQKPGQPPKLLIYGASTRESGVPDRFTGSGSGTDFTLTISSVQAEDLAVYYCQNDHSYPFTFGSGTKLEIK
For B1, the “distribution of MMP13-positive chondrocytes in articular cartilage zones” value ([1]; DMM mice, eight weeks, saline: three zones) was “localized mainly in the middle and deep zones”, the “percentage of Col X positive cells” value ([1]; articular cartilage, eight weeks following DMM, i.p. twice, vehicle-treated 52%) was 38% and the “percentage of MMP-13-positive cells in the articular cartilage” value ([1]; eight weeks after DMM, i.p. twice, saline-treated 36%) was 27%. For the same molecule, the “MMP13 score, ratio of integrated optical density (IOD) to articular cartilage area” value ([1]; single i.p. injection at 30 minutes post-surgery, eight weeks after DMM, saline 0.17±0.016) was 0.10±0.009, the “response threshold to mechanical stimuli (von Frey)” value ([2]; 4 weeks after DMM, vs saline) was “slight trend of increased response threshold” and the “paw withdrawal threshold relative to saline treated DMM mice” value ([2]; 8 weeks after DMM, i.p. twice) was 121.4%. For the same molecule, the “paw withdraw threshold in sham mice, saline vs antibody” value ([2]; sham mice at 8 weeks) was “No difference”, the “paw withdraw threshold to mechanical stimuli (von Frey)” value ([2]; single i.p. injection, eight weeks after DMM, vs saline) was “slight trend of increased paw withdraw threshold” and the “degree of synovitis (synovitis score)” value ([3]; DMM mice, i.p. twice at 30 minutes and four weeks post-surgery, 8 weeks after DMM) was “marked reduction”. For the same molecule, the “degree of synovitis (synovitis score)” value ([3]; delayed treatment: i.p. at 10, 25 and 40 days after DMM surgery, eight weeks after DMM) was “significant reduction”, the “DMM-increased hemichannel opening (Evans Blue dye uptake intensity in synovium region)” value [4] was “blocked” and the “IL-1β treatment induced HCs opening (ethidium bromide dye uptake)” value [5] was “blocked”.
